Measured values taken from paper doi:10.1101/2021.03.28.437443.

Molecular target: uncleaved full-length membrane-anchored HIV-1 JR-FL Env(-) glycoprotein (HIV-1 (strain JR-FL))
Experiment: cryo-EM structure

uncleaved full-length membrane-anchored HIV-1 JR-FL Env(-) glycoprotein (natural protein)
stoichiometry N: 3
